We go through 2 molecules from US20240301086A1 (APTEVO RESEARCH AND DEVELOPMENT, published 2024).

The target in experiment [1] is T1, human CD3ε in the TCR/CD3 complex on Jurkat cells (human, UniProt P07766 23-207). The experiment in a line: cell-based or functional assay.
Experiment [2] deals with T1, human CD3ε in the TCR/CD3 complex on …. As to the kind of experiment: flow cytometry, Jurkat cells (approximate calculation). The procedure:
Jurkat and C4-2B cells were labelled at approximately 100,000 cells per well, in 96-well plates, with serial dilutions of bispecific constructs ranging in concentration from of 0.1 to 300 nM, for 30 min on ice. Primary label was followed by washes and incubation with PE-labeled minimum cross species reactive secondary antibody, goat anti-human IgG Fcγ, F(ab′)2 (Jackson Laboratory) for 30 minutes on ice. Washes and incubation were done in staining buffer (PBS with 0.2% BSA and 2 mM EDTA). Cells were collected using an BD™ LSRII or a BD FACSymphony™ flow cytometer (BD Biosciences) and analyzed by FlowJo flow cytometry analysis software. Median fluorescence intensity (MFI) of bound molecules on cells was determined after exclusion of doublets. Results were plotted and nonlinear regression analysis to determine EC50 values was performed using GraphPad Prism 7® graphing and statistics software.
On Jurkat cells (FIG. 11B), a range of binding potencies was observed. […] Swapping the orientation of the CD3-binding domain from VH-VL (PSMA01071) to VL-VH (PSMA01086) further reduced binding to CD3 in the C-terminus. The maximum CD3-binding signal differed between the constructs with N-terminal CD3-binding domain constructs showing the highest maximum binding. However, potency (EC50) and not maximum binding correlated with function, as will be shown in the next example.

The target in experiment [3] is T2, Full-length Human PSMA (TSC435), on cells (human, UniProt Q04609 1-750).
T2 construct: also called CHOK1SV/huPSMA; PSMA on C4-2B, 22RV1, LNCaP, MDA-PCa-2b cells
The experiment in a line: flow cytometry on C4-2B cells, PE goat anti-human IgG Fc secondary, MFI (median).

In experiment [4] the target is T1, human CD3ε in the TCR/CD3 complex on …. The experiment in a line: flow cytometry on Jurkat cells, PE goat anti-human IgG Fc secondary, MFI (median). In general terms: A flow cytometer gives signals particle by particle.
The target is the same in experiment [5]. The experiment in a line: flow cytometry on Jurkat cells, MFI (median).
Experiment [6] concerns the target T3, Human PSMA ECD-AFH (TSC033), recombinant dimeric PSMA ECD (human, UniProt Q04609 44-750).
T3 construct: SEC-purified dimer; also called HuPSMA-AFH; Avi-His-Human PSMA ECD
The experiment in a line: SPR (Biacore T200), human PSMA dimer ECD 10X His (TSC033), 1:1 fit. (In general: SPR reads the build-up and loss of mass on a sensor chip optically.)

The target in experiment [7] is T4, mIgG Fc-human PSMA ECD (human).
T4 construct: Called PSMA dimer in the SPR method; also called mFc-Hu PSMA ECD; murine Fc-tagged human PSMA ECD
As to the kind of experiment: SPR (Biacore T200), bispecific amine-coupled, mFc-PSMA dimer 1-81 nM as analyte, 1:1 fit. The procedure: (§1) SPR studies were performed on a subset of bispecific constructs binding to Human and cynomolgus primate PSMA ectodomain (ECD) fused to the c-terminus of a murine IgG1 Fc region. These experiments were conducted at 25° C. in dPBS (Gibco, 14040-133) with 0.2% BSA buffer on a Biacore T200 system. Bispecific constructs were immobilized at a density of ˜2,000-4,000 response units (RU) onto individual flow cells of a CM5 research-grade sensor chip (GE) by standard amine coupling chemistry, leaving one flow cell surface unmodified as the reference. Using a multi-cycle kinetics mode, a buffer blank and […] different concentrations of the PSMA dimer ranging from 1 nM to 81 nM in dPBS with 0.2% BSA were sequentially injected through each flow cell at 30 μL/min for 300 seconds followed by a 600 second dissociation phase. Regeneration was achieved by injection of 10 mM glycine pH 2.0 at a flow rate of 30 μL/min for 40 seconds followed by dPBS with 0.2% BSA buffer stabilization for 1 min.
(§2) Sensorgrams obtained from kinetic SPR measurements were analyzed by the double subtraction method. The signal from the reference flow cell was subtracted from the analyte binding response obtained from flow cells with captured ligands. The buffer blank response was then subtracted from analyte binding responses and the final double-referenced data were analyzed with Biacore T200 Evaluation software (2.0, GE), globally fitting data to derive kinetic parameters. All sensorgrams were fitted using a simple one-to-one binding model.

For experiment [8], the target named is T5, mIgG Fc-cyno PSMA ECD (cynomolgus monkey).
T5 construct: Called PSMA dimer in the SPR method; also called mFc-Cyno PSMA ECD; murine Fc-tagged cyno PSMA ECD
T5 chain: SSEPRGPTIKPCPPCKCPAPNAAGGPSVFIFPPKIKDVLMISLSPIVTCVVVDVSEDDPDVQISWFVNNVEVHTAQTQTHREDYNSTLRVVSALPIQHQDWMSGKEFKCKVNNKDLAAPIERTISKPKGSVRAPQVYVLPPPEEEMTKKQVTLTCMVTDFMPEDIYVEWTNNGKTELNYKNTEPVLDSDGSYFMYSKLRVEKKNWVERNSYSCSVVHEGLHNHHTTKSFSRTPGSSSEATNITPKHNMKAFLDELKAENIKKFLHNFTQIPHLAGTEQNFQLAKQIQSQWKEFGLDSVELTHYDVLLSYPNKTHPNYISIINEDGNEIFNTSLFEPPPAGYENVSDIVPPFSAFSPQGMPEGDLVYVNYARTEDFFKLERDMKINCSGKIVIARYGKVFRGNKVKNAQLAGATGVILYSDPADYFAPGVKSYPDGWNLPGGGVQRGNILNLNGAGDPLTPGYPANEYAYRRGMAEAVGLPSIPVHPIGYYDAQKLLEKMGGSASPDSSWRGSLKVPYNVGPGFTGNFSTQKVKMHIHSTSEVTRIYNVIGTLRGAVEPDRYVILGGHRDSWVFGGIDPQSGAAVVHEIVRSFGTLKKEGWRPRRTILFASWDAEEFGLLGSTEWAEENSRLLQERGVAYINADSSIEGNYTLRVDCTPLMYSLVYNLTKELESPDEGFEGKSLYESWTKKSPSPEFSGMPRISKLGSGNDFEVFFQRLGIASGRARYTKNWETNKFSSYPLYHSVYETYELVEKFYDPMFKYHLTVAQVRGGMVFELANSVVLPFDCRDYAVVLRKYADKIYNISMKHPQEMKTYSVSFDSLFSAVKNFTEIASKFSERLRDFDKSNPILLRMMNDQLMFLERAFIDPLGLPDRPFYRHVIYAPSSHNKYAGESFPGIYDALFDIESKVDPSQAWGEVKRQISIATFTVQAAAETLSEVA
The description is as above. The procedure:
as §1, §2

T1 sequence (P07766 23-207, one chain of several): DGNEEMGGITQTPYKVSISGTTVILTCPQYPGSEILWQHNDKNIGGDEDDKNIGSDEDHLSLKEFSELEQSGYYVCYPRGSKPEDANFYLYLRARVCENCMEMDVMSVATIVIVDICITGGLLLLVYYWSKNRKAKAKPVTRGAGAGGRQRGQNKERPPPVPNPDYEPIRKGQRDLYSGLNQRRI
T2 sequence (Q04609 whole entry): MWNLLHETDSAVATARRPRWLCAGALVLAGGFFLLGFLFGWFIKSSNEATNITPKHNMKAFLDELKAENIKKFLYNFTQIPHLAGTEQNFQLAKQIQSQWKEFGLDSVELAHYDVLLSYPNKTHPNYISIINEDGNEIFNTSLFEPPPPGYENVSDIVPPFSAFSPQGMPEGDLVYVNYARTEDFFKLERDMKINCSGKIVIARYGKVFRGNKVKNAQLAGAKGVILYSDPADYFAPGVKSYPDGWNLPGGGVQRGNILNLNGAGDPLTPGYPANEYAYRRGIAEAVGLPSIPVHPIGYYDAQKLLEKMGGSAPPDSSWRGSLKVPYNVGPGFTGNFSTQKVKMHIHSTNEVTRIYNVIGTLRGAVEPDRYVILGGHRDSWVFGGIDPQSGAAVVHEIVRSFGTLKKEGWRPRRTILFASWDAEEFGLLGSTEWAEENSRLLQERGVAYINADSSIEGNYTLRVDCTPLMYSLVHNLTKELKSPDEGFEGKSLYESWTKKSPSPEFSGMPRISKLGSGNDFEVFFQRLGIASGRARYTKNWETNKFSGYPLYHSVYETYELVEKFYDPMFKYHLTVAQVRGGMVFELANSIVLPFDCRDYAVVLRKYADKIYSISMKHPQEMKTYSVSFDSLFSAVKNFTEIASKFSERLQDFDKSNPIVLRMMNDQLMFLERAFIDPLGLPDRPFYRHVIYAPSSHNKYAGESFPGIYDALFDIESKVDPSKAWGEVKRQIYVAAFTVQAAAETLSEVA
T3 sequence (Q04609 other isoform, or with tags, fused parts or gaps): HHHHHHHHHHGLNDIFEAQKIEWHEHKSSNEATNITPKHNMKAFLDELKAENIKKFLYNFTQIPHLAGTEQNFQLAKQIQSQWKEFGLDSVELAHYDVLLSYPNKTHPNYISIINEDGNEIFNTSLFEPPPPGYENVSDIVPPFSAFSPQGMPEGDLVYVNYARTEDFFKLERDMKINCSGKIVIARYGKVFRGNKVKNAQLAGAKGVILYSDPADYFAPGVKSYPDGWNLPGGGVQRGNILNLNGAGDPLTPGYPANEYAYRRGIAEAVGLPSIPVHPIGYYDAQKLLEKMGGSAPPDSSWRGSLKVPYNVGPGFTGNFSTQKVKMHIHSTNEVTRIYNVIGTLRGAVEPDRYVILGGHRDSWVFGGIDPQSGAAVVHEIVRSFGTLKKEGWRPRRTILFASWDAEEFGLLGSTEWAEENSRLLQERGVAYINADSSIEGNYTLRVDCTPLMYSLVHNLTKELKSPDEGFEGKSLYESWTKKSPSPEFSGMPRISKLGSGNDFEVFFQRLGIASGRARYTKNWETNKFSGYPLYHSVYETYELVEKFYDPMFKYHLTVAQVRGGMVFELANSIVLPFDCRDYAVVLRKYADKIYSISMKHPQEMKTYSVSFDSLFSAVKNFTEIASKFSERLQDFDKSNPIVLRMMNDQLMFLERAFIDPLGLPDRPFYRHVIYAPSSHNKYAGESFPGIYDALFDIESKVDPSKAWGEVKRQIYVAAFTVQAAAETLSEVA

B1: PSMA01071 Anti PSMA scFv x Fc; Anti PSMA scFv x Fc x Anti CD3 scFv (bispecific antibody)
chain 1: QVQLVQSGAEVKKPGASVKVSCKASGYTFTDYYMHWVRQAPGQGLEWMGYFNPYNDYTRYAQKFQGRVTMTRDTSTSTVYMELSSLRSEDTAVYYCARSDGYYDAMDYWGQGTTVTVSSGGGGSGGGGSGGGGSGGGGSDIQMTQSPSSLSASVGDRVTITCRASKSISKYLAWYQQKPGKAPKLLIHSGSSLESGVPSRFSGSGSGTEFTLTISSLQPDDFATYYCQQHIEYPWTFGQGTKVEIKEPKSSDKTHTCPPCPAPPAAAPSVFLFPPKPKDTLMISRTPEVTCVVVDVSHEDPEVKFNWYVDGVEVHNAKTKPREEQYNSTYRVVSVLTVLHQDWLNGKEYKCAVSNKALPAPIEKTISKAKGQPREPQVYTLPPSRDELTKNQVSLWCLVKGFYPSDIAVEWESNGQPENNYKTTPPVLDSDGSFFLYSKLTVDKSRWQQGNVFSCSVMHEALHNHYTQKSLSLSPG
chain 2: QVQLVQSGAEVKKPGASVKVSCKASGYTFTDYYMHWVRQAPGQGLEWMGYFNPYNDYTRYAQKFQGRVTMTRDTSTSTVYMELSSLRSEDTAVYYCARSDGYYDAMDYWGQGTTVTVSSGGGGSGGGGSGGGGSGGGGSDIQMTQSPSSLSASVGDRVTITCRASKSISKYLAWYQQKPGKAPKLLIHSGSSLESGVPSRFSGSGSGTEFTLTISSLQPDDFATYYCQQHIEYPWTFGQGTKVEIKEPKSSDKTHTCPPCPAPPAAAPSVFLFPPKPKDTLMISRTPEVTCVVVDVSHEDPEVKFNWYVDGVEVHNAKTKPREEQYNSTYRVVSVLTVLHQDWLNGKEYKCAVSNKALPAPIEKTISKAKGQPREPQVYTLPPSRDELTKNQVSLSCAVKGFYPSDIAVEWESNGQPENNYKTTPPVLDSDGSFFLVSKLTVDKSRWQQGNVFSCSVMHEALHNRFTQKSLSLSPGGGGSPSQVQLVQSGAEVKKPGASVKVSCKASGYTFTRSTMHWVRQAPGQGLEWIGYINPSSAYTNYAQKFQGRVTLTADKSTSTAYMELSSLRSEDTAVYYCASPQVHYDYNGFPYWGQGTLVTVSSGGGGSGGGGSGGGGSGGGGSDIQMTQSPSSLSASVGDRVTITCRASSSVSYMNWYQQKPGKAPKRWIYDSSKLASGVPSRFSGSGSGTDFTLTISSLQPEDFATYYCQQWSRNPPTFGQGTKVEIKRS
B1: in experiment [1], the cytotoxic activity was ~10 fold. Further, the “fold decrease in T-cell activation and proliferation” value in experiment [1] was ~3 fold. Moreover, in experiment [2], the “fold reduction in binding potency against PSMA01072” value is ~200 fold. In addition, the EC50 – broadly, the concentration that produces a half-maximal response – in experiment [3] was 1 nM; in experiment [4], > 204 nM.

B2: PSMA01116 Anti-PSMA scFv x Fc x linker x Anti CD3 scFv; Anti PSMA scFv x Fc (bispecific antibody)
chain 1: QVQLVQSGAEVKKPGASVKVSCKASGYTFTDYYMHWVRQAPGQGLEWMGYFNPYNDYTRYAQKFQGRVTMTRDTSTSTVYMELSSLRSEDTAVYYCARSDGYYDAMDYWGQGTTVTVSSGGGGSGGGGSGGGGSGGGGSDIQMTQSPSSLSASVGDRVTITCRASKSISKYLAWYQQKPGKAPKLLIHSGSSLESGVPSRFSGSGSGTEFTLTISSLQPDDFATYYCQQHIEYPWTFGQGTKVEIKEPKSSDKTHTCPPCPAPPAAAPSVFLFPPKPKDTLMISRTPEVTCVVVDVSHEDPEVKFNWYVDGVEVHNAKTKPREEQYNSTYRVVSVLTVLHQDWLNGKEYKCAVSNKALPAPIEKTISKAKGQPREPQVYTLPPSRDELTKNQVSLWCLVKGFYPSDIAVEWESNGQPENNYKTTPPVLDSDGSFFLYSKLTVDKSRWQQGNVFSCSVMHEALHNHYTQKSLSLSPGGGGSPSQVQLVQSGAEVKKPGASVKVSCKASGYTFTRSTMHWVRQAPGQGLEWIGYINPSSAYTNYAQKFQGRVTLTADKSTSTAYMELSSLRSEDTAVYYCASPQVHYDYNGFPYWGQGTLVTVSSGGGGSGGGGSGGGGSGGGGSDIQMTQSPSSLSASVGDRVTITCRASSSVSYMNWYQQKPGKAPKRWIYDSSKLASGVPSRFSGSGSGTDFTLTISSLQPEDFATYYCQQWSRNPPTFGQGTKVEIK
chain 2: QVQLVQSGAEVKKPGASVKVSCKASGYTFTDYYMHWVRQAPGQGLEWMGYFNPYNDYTRYAQKFQGRVTMTRDTSTSTVYMELSSLRSEDTAVYYCARSDGYYDAMDYWGQGTTVTVSSGGGGSGGGGSGGGGSGGGGSDIQMTQSPSSLSASVGDRVTITCRASKSISKYLAWYQQKPGKAPKLLIHSGSSLESGVPSRFSGSGSGTEFTLTISSLQPDDFATYYCQQHIEYPWTFGQGTKVEIKEPKSSDKTHTCPPCPAPPAAAPSVFLFPPKPKDTLMISRTPEVTCVVVDVSHEDPEVKFNWYVDGVEVHNAKTKPREEQYNSTYRVVSVLTVLHQDWLNGKEYKCAVSNKALPAPIEKTISKAKGQPREPQVYTLPPSRDELTKNQVSLSCAVKGFYPSDIAVEWESNGQPENNYKTTPPVLDSDGSFFLVSKLTVDKSRWQQGNVFSCSVMHEALHNHYTQKSLSLSPG
notes: Heterodimer, bivalent for PSMA and monovalent for CD3; also called PSM01116
Regarding B2, in experiment [5], the binding result is “binds”. Besides, the results for the Kd in experiment [6], in experiment [7] and in experiment [8] were 5.2 nM, 4.1 nM and 6.2 nM, respectively.
